Laboratory results reported in patent US20170158753A1.
“And” between values parts separate entries of the source, which are not always exact repeats. Identical values can stand only once. Like-named read-outs stand apart in the source and are kept apart here.

What was measured:
[1] = biological target: EBOV GP[change] (Ebola virus), Q05320; conditions: remark: other sources report otherwise
[2] = biological target: EBOV GP[change] (Ebola virus), Q05320; conditions: remark: other sources report otherwise; remark: listed apart in the source
[3] = biological target: EBOV GP[change] (Ebola virus), Q05320; conditions: remark: other sources report otherwise; remark: listed apart in the source
[4] = biological target: cleaved EBOV GP (GPcl) (Ebola virus (EBOV)), Q05320; assay: ELISA on thermolysin cleaved EBOV GP (GPcl), OD650 against nM mAb; conditions: remark: other sources report otherwise
[5] = biological target: cleaved EBOV GP (GPcl) (Ebola virus (EBOV)), Q05320; assay: ELISA on cathepsin-cleaved EBOV GP at pH 5.5; conditions: remark: other sources report otherwise
[6] = biological target: MARV GP[change] (Marburg virus), P35253; conditions: remark: other sources report otherwise
[7] = biological target: cleaved EBOV GP (GPcl) (Ebola virus (EBOV)), Q05320; assay: ELISA on cathepsin-cleaved EBOV GP at pH 7; conditions: remark: other sources report otherwise
[8] = biological target: cleaved EBOV GP (GPcl) (Ebola virus (EBOV)), Q05320; assay: ELISA, cleaved EBOV GP coated; conditions: remark: other sources report otherwise
[9] = biological target: EBOV GP[change] (Ebola virus) (UniProt Q05320)
[10] = biological target: BDBV GP[change] (Bundibugyo virus (BDBV)); assay: ELISA, GPΔTM coated
[11] = biological target: EBOV GP[change] (Ebola virus) (UniProt Q05320); remark: listed apart in the source
[12] = biological target: SUDV GP[change] (Sudan virus) (UniProt Q66814)
[13] = biological target: RESTV GP[change] (Reston virus) (UniProt Q66799)
[14] = biological target: MARV GP[change] (Marburg virus) (UniProt P35253)

B1: m17C6 (antibody, V domains shown)
VH: EVQLQESGPGLVQPSQSLSITCTVSGFSLTSYGVHWVRQSPGKGLEWLGVIWSGGSTDYNAAFISRLSISKDNSKSQVFFKMNSLQADDTAIYYCARNWFDYDNYYSMDYWGQGTSVTVSS
VL: DIQMTQTTSSLSASLGDRVTISCRASQDISNYLNWYQQKPDGTVKLLIYYTSRLHSGVPSRFSGSGSGTDFSLTISNQEPEDIATYYCQQYSNLPWTFGGGTKLEIKR
For B1, the Kd [1] was 11 nM, the EC50 [2] was 0.03 µg/mL and the EC50 [3] was 1 nM. For the same binder, the EC50 [4] was 0.6 nM.

B2: m2D8 (antibody, V domains shown)
VH: EVQLQESGGELVRPGTSVKISCKASGYTFTNFWLGWIKERPGHGLEWIGDIYPGGHYTNYNENFKGKATLTADTSSNTAYMQVSSLTSEDSAVYFCFTQYYDMDYWGQGTSVTVSS
VL: not shown
With B2 the EC50 (read off the curve) [5] was 1 µg/mL, the EC50 [2] was 26.2 µg/mL and the EC50 [6] was 0.0573 µg/mL. The EC50 (read off the curve) [7] was 0.7 µg/mL and the EC50 [8] was 0.72 µg/mL.

B3: m8C4 (antibody, V domains shown)
VH: EVQLQESGPELKKPGETVKISCKASGYTFTTYGMSWVKQAPGKGLKWMGRINTYSGVPTYADEFKGRFAFSLENSASTAYLQINNLKNEDTATYFCARGDGGHWFANWGQGTLVTVSA
VL: DIQMTQSPSSLSASLGGKVTITCKASQDINKNIAWYQHKPGKGPRLLIWYKSALQPGIPSRFSGSGSGRDYSFSISNLEPEDIATYSCLQYDNLPPTFGGGTKLEIKR
In the case of B3, the EC50 [2] is reported as 0.21 µg/mL, the EC50 [9] is reported as 6.7 nM and the EC50 [10] is reported as over 10 µg/mL. The EC50 [11] was 0.26 µg/mL, the EC50 [12] was 0.15 µg/mL and 0.06 µg/mL and the EC50 [3] was 2.6 nM.

B4: m16G8 (antibody, V domains shown)
VH: EVQLQESGPGLVKPGASVKISCKASGYSFTGYYMNWVKQSPEKSLEWIGEINPSTGGTTYNQKFKAKATLTVDKSSSTAYMQLKSLTSEDSAVYYCVRYSHYYGSGSWYFDVWGTGTTVTVSS
VL: DIQMTQSPASLSASVGETVTITCRASENIYSNLAWYQQKQGKSPQLLVNAATNLADGVPSRFSGSGSGTQFSLKINSLQPEDFGSYYCQHFYVTPYMFGSGTKLEIKR
B4 showed an EC50 [2] of 1.23 µg/mL, an EC50 [3] of 3.3 nM and an EC50 [4] of over 100 nM.

B5: m2E4 (antibody, V domains shown)
VH: EVQLQESGPELVKPGASVKISCKASGYSFTGYYMNWVKQSPEKSLEWIGEINPSTGGTTYNQKFKAKATLTVDKSSSTAYMQLKSLTSEDSAVYYCVRYSHYYGSGSWYFDVWGTGTTVTVSS
VL: DIQMTQSPASLSASVGETVTITCRASENIYSNLAWYQQKQGKSPQLLVNAATNLADGVPSRFSGSGSGTQFSLKINSLQPEDFGSYYCQHFYVTPYTFGSGTKLEIKR
In the case of B5, the EC50 [10] is reported as 0.69 µg/mL, the EC50 [13] is reported as over 10 µg/mL and the EC50 [11] is reported as over 10 µg/mL.

B6: m21B2 (antibody, V domains shown)
VH: EVQLQESGAELVRPGASVTLSCKTSGYTFTDYEMHWVKQTPVHGLEWIGAIDPETGGTAYNQKFKGKATLTADKSSSTAYMELSRLTSEDSAVYYCTGNYATDYWGQGTSVTVSS
VL: DIVMSQSPSSLAVSAGEKVTMSCKSSQSLFNSRSRKNYLAWYQLKPGQSPKLLIYWASTRESGVPDRFTGSGSGTDFTLTISSVQAEDLAVYYCKQSNYLWTFGGGTKLEIKR
B6 showed an EC50 [2] of over 10 µg/mL, an EC50 [6] of 0.0307 µg/mL and an EC50 [12] of over 10 µg/mL. For the same binder, the EC50 [14] was 0.0688 µg/mL.
